Source: patent publication US7541141B2, “Method of using estrogen-related receptor alpha (ERRα) status to determine prognosis, treatment strategy and predisposition to breast cancer, and method of using ERRα as a therapeutic target for the treatment of breast cancer” (Wisconsin Alumni Research Foundation, priority 1997, dated 2009)

What was measured:
[1] = tested on: ERE-dependent transcription in MCF-7 cells; assay: p3xERE-TK-luc luciferase reporter, transient transfection; assay type: cell-based, human
Experimental: (§1) Transient Transfections and Luciferase Assays: To assess the role ERRα plays in regulating transcription of an ERE-containing promoter, MCF-7 or HeLa cells grown in 12-well tissue culture plates were co-transfected in parallel with 0.5 μg of pTK-luc versus p3xERE-TK-luc along with the indicated amounts of the empty cloning vector pcDNA3.1, the ERRα1 expression plasmid pcDNA3.1-hERRα1, or mutant variants thereof. Transfections were performed with the aid of the TransIT LT1 transfection reagent (PanVera, Madison, Wis.) as previously described (35). To examine the effects of ER ligands, cells were maintained in stripped medium for 48 h before transfection and the addition of 17β-estradiol (E2) (Sigma) or the pure anti-estrogen ICI-182,780 (Astra Zeneca, London, UK) dissolved in ethanol and diluted in medium to obtain the indicated concentrations. Cells were harvested 48 h post-transfection, and lysates were assayed for luciferase activity normalized to protein concentration as previously described (36).
ERRα Represses Transcription in MCF-7 Cells: Because ERRα can interfere with the binding of ERα to this ERE, might it affect estrogen-responsive transcription? To answer this question, we co-transfected ERα-positive mammary MCF-7 cells in parallel with p3xERE-TK-luc, a reporter plasmid containing three tandem copies of this ERE (FIG. 14A) or the ERE-negative control plasmid, pTK-luc, together with 0.12 or 0.25 μg of the ERRα1 expression plasmid, pcDNA3.1-hERRα1, or the empty parental expression plasmid, pcDNA3.1. After incubation for 48 h in medium containing whole FBS, the cells were harvested and assayed for luciferase activity. The presence of the EREs conferred an about 150-fold increase in transcriptional activity above the level observed in the cells transfected with the ERE-negative reporter plasmid (FIG. 14B). […] Thus, ERRα inhibits the estrogen-responsive activation of transcription from this ERE-containing promoter in this ER-positive MCF-7 cell line.
ERRα Modulates Estrogen-responsiveness in MCF-7 Cells: To directly examine the effect of ERRα on the response to estrogen, MCF-7 cells were cultured in medium containing estrogen-free charcoal-stripped FBS and cotransfected as described above but in the absence or presence of E2. […] Once again, overexpression of ERRα repressed ERE-dependent transcription approximately 3-fold while having little if any effect on transcription of the control reporter (FIG. 15A).

[2] = tested on: ERE-dependent transcription in HeLa cells; assay: as above; assay type: cell-based, human; conditions: whole FBS
Experimental: as §1, with “cells were maintained in stripped medium for 48 h before transfection and the addition of 17β-estradiol” left out
ERRα Activates Transcription in HeLa Cells: Our finding that ERRα represses transcription from an ERE-controlled promoter was somewhat surprising since most reports in the literature conclude that ERR family members function as transcriptional activators of ERE-dependent transcription (17-31). […]

[3] = biological target: T1, ERRα (Homo sapiens, UniProt P11474); conditions: cited from earlier work
T1 sequence (P11474 1-423): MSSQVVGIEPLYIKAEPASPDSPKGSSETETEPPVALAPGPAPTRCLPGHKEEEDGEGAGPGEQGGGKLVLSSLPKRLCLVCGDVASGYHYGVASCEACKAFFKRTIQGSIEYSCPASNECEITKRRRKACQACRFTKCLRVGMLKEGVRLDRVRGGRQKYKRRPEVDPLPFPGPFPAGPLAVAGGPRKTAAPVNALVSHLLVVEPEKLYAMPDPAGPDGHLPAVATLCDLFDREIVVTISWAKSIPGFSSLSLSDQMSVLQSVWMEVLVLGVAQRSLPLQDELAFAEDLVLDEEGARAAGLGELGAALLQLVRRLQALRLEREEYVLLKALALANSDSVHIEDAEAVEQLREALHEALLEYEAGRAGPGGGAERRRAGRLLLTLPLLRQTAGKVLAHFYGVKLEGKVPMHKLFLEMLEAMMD

[4] = biological target: ERRγ (Homo sapiens, UniProt P62508); conditions: cell-based assays; cited from earlier work
[5] = tested on: ERE-independent TK-luc transcription in MCF-7 cells; assay: pTK-luc ERE-negative control luciferase reporter, transient transfection; assay type: cell-based, human; conditions: whole FBS, 48 h
Experimental: as §1

[6] = 0.12 or 0.25 μg expression plasmid, whole FBS, 48 h

ERRγ, sequence (P62508 whole entry): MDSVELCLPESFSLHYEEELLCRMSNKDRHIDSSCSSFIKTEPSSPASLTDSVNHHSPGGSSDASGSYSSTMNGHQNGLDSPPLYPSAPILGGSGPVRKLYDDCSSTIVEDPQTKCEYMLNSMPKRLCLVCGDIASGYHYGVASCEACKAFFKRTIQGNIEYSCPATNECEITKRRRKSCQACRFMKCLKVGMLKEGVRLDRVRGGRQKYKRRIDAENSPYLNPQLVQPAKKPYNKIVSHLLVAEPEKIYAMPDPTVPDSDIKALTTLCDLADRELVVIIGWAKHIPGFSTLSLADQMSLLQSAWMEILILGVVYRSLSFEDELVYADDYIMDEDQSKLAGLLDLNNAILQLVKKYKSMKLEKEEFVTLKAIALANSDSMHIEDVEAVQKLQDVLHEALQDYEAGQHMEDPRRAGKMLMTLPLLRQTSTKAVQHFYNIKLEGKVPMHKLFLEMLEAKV

C[C@]12CC[C@@H]3c4ccc(O)cc4C[C@@H](CCCCCCCCC[S+]([O-])CCCC(F)(F)C(F)(F)F)[C@H]3[C@@H]1CC[C@@H]2O (some centres unmarked) [ICI-182,780, reference compound]
Effect of anti-estrogen on ERE-dependent activity ([1]; 1×10^−6 M, charcoal-stripped FBS plus 1×10^−8 M E2): extremely sensitive
Effect of anti-estrogen on E2 induction of ERE reporter ([1]; 1×10^−6 M, charcoal-stripped FBS plus 1×10^−10 M E2): completely eliminated
Effect of anti-estrogen on ERE-dependent activity ([1]; 1×10^−6 M, charcoal-stripped FBS, no exogenous E2): largely ablated
Effect of anti-estrogen on ERE-dependent activity ([1]; 1×10^−6 M, medium with whole FBS): extremely sensitive
Effect of anti-estrogen on ERE-dependent activity [2]: completely insensitive

CC1(C)C(C(Cl)Cl)C2(Cl)C(Cl)C(Cl)C1(Cl)C2(Cl)Cl (centres unmarked) [toxaphene]
Effect on ERRα activity (literature) [3]: decrease the activity of ERRα

ClC1=C(Cl)C2(Cl)C3C(Cl)C(Cl)CC3C1(Cl)C2(Cl)Cl (centres unmarked) [chlordane]
Effect on ERRα activity (literature) [3]: decrease the activity of ERRα

4-hydroxytamoxifen
Effect on ERRγ (literature) [4]: selectively antagonizes ERRγ

B1: ERRα: wild-type human ERRα1 overexpressed from plasmid pcDNA3.1-hERRα1 (protein)
chain: MSSQVVGIEPLYIKAEPASPDSPKGSSETETEPPVALAPGPAPTRCLPGHKEEEDGEGAGPGEQGGGKLVLSSLPKRLCLVCGDVASGYHYGVASCEACKAFFKRTIQGSIEYSCPASNECEITKRRRKACQACRFTKCLRVGMLKEGVRLDRVRGGRQKYKRRPEVDPLPFPGPFPAGPLAVAGGPRKTAAPVNALVSHLLVVEPEKLYAMPDPAGPDGHLPAVATLCDLFDREIVVTISWAKSIPGFSSLSLSDQMSVLQSVWMEVLVLGVAQRSLPLQDELAFAEDLVLDEEGARAAGLGELGAALLQLVRRLQALRLEREEYVLLKALALANSDSVHIEDAEAVEQLREALHEALLEYEAGRAGPGGGAERRRAGRLLLTLPLLRQTAGKVLAHFYGVKLEGKVPMHKLFLEMLEAMMD
Repression of ERE-dependent transcription by overexpression [1, 6]: 3-4 fold
Inhibition of E2-mediated activation of transcription by overexpression ([1]; charcoal-stripped FBS plus 1×10^−8 M E2): no longer inhibited
Inhibition of E2-mediated activation of transcription by overexpression ([1]; charcoal-stripped FBS plus 1×10^−10 M E2): 3-5 fold
Repression of ERE-dependent transcription by overexpression ([1]; charcoal-stripped FBS, no exogenous E2): approximately 3 fold
Activation of transcription from p3xERE-TK-luc by overexpression ([2]; 48 h): 2.5 fold

B2: ERRα1P-box: ERRα1 variant with E97G/A98S/A101V in the P-box, unable to bind DNA (protein)
chain: MSSQVVGIEPLYIKAEPASPDSPKGSSETETEPPVALAPGPAPTRCLPGHKEEEDGEGAGPGEQGGGKLVLSSLPKRLCLVCGDVASGYHYGVASCGSCKVFFKRTIQGSIEYSCPASNECEITKRRRKACQACRFTKCLRVGMLKEGVRLDRVRGGRQKYKRRPEVDPLPFPGPFPAGPLAVAGGPRKTAAPVNALVSHLLVVEPEKLYAMPDPAGPDGHLPAVATLCDLFDREIVVTISWAKSIPGFSSLSLSDQMSVLQSVWMEVLVLGVAQRSLPLQDELAFAEDLVLDEEGARAAGLGELGAALLQLVRRLQALRLEREEYVLLKALALANSDSVHIEDAEAVEQLREALHEALLEYEAGRAGPGGGAERRRAGRLLLTLPLLRQTAGKVLAHFYGVKLEGKVPMHKLFLEMLEAMMD
Induction of ERE-dependent transcription by overexpression ([1]; whole FBS, 48 h): 2-3 fold

B3: ERRα1413A/418A: ERRα1 variant with alanine in place of leucine at amino acids 413 and 418 (NR box) (protein)
chain: MSSQVVGIEPLYIKAEPASPDSPKGSSETETEPPVALAPGPAPTRCLPGHKEEEDGEGAGPGEQGGGKLVLSSLPKRLCLVCGDVASGYHYGVASCEACKAFFKRTIQGSIEYSCPASNECEITKRRRKACQACRFTKCLRVGMLKEGVRLDRVRGGRQKYKRRPEVDPLPFPGPFPAGPLAVAGGPRKTAAPVNALVSHLLVVEPEKLYAMPDPAGPDGHLPAVATLCDLFDREIVVTISWAKSIPGFSSLSLSDQMSVLQSVWMEVLVLGVAQRSLPLQDELAFAEDLVLDEEGARAAGLGELGAALLQLVRRLQALRLEREEYVLLKALALANSDSVHIEDAEAVEQLREALHEALLEYEAGRAGPGGGAERRRAGRLLLTLPLLRQTAGKVLAHFYGVKLEGKVPMHKAFLEMAEAMMD
Repression of ERE-dependent transcription by overexpression [1, 6]: 5-8 fold
Repressive effect on ERE-dependent transcription normalized to the control ([1]; normalized to pTK-luc control): 10-16 fold
Up-regulation of ERE-independent TK-luc transcription by overexpression [5]: approximately 2 fold
